This note sets out measurements from patent US20250387497A1 (PURDUE RESEARCH FOUNDATION, published 2025).

Values joined by “and” are separate entries in the source; they are usually repeats but may differ in a detail not shown here. Identical values can stand only once. Where only a bound is given, the exact number is not on record here.

Experiment [1] has as its target T1, fibroblast growth factor receptor 3 (FGFR3).
T1 chain: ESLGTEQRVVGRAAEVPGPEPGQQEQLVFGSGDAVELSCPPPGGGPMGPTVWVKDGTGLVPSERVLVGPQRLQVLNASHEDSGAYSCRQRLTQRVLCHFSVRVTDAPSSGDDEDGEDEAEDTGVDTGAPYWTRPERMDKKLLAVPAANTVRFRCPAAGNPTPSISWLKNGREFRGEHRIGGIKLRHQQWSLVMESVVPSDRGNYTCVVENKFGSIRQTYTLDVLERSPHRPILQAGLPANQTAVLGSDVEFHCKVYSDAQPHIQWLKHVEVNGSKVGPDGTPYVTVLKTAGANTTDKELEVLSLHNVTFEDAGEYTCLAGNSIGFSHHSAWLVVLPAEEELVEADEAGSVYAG
As to the kind of experiment: binding affinity, method not stated.

The target in experiment [2] is interleukin-4 receptor alpha (IL-4Rα). The experiment can be described thus: binding affinity, method not stated.
interleukin-4 receptor alpha (IL-4Rα), sequence (chain, as listed by the source): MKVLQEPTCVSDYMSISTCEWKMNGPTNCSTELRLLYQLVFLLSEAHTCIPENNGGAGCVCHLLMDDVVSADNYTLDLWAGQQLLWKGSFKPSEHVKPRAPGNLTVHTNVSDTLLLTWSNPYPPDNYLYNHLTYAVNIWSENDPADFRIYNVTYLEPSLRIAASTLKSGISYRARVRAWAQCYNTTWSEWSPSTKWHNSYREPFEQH

In general, Kd refers to the equilibrium constant for the complex coming apart. Consider VSPPLTLGQLLS [peptide "F", binding motif for FGFR3, VSPPLTLGQLLS], for which the Kd in experiment [1] was ~1000 nM and 1000 nM.

As for KLAKLAKKLAKLAK [peptide "I", binding motif for IL-4Rα, KLAKLAKKLAKLAK], the Kd in experiment [2] was < 60000 nM and 55900 nM.
